Data published in US20140072613A1, “Compositions and Methods for Treating Cutaneous Scarring” (priority 2012, published 2014).

Assays:
Assay in all cases: biochemical
Type in all cases: biochemical
[1] = biological target: T1, 266 human kinases (Homo sapiens, UniProt P41743); conditions: PKCι(h); 100 μM
T1 sequence (P41743 1-596): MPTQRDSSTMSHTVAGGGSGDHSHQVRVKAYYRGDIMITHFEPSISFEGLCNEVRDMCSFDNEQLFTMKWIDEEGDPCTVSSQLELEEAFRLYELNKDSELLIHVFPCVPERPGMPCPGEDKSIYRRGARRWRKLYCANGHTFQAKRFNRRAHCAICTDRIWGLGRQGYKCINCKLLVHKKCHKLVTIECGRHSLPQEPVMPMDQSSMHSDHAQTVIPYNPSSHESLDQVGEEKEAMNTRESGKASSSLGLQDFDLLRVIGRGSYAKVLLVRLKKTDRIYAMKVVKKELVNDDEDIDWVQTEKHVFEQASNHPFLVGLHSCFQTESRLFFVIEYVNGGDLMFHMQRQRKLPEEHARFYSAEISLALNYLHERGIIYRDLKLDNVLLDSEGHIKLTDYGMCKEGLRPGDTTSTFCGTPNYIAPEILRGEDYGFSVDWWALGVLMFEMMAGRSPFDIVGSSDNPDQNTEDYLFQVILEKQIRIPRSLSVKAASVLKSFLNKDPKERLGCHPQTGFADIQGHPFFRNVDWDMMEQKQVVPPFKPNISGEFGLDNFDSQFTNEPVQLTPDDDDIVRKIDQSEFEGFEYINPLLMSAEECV
Outline: (§1)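 Inhibition was judged from reduced transfer of labelled phosphate from ATP to a positively charged substrate, which was captured on a negatively charged membrane and quantified by scintillation counting against a 100% activity control.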

[2] = biological target: 266 human kinases (Homo sapiens, UniProt P06241); conditions: Fyn(h); 100 μM
Outline: as §1

[3] = biological target: 266 human kinases (Homo sapiens, UniProt P10721); conditions: cKit(h); 100 μM
Outline: as §1

[4] = biological target: T2, 266 human kinases (Homo sapiens, UniProt O60285); conditions: ARK5(h); 100 μM
T2 sequence (O60285 1-661): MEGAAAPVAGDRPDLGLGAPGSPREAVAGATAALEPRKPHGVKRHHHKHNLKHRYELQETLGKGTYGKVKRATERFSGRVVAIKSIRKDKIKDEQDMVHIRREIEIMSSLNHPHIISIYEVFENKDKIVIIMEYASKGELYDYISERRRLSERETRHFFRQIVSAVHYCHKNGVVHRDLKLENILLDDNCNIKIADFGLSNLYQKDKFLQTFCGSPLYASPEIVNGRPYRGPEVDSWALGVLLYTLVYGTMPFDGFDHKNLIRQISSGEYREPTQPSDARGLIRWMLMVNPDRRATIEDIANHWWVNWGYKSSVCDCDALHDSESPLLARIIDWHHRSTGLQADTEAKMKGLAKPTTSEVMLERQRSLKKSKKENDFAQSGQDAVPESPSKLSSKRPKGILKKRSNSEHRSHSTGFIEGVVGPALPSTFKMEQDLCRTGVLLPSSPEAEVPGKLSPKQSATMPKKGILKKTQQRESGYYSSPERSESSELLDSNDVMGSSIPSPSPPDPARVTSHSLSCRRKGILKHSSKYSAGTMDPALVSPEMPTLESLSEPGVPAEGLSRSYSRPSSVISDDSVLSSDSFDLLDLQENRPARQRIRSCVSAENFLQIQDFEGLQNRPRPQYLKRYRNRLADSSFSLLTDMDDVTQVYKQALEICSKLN
Outline: as §1

[5] = biological target: T3, 266 human kinases (Homo sapiens, UniProt Q12851); conditions: GCK(h); 100 μM
T3 sequence (Q12851 1-820): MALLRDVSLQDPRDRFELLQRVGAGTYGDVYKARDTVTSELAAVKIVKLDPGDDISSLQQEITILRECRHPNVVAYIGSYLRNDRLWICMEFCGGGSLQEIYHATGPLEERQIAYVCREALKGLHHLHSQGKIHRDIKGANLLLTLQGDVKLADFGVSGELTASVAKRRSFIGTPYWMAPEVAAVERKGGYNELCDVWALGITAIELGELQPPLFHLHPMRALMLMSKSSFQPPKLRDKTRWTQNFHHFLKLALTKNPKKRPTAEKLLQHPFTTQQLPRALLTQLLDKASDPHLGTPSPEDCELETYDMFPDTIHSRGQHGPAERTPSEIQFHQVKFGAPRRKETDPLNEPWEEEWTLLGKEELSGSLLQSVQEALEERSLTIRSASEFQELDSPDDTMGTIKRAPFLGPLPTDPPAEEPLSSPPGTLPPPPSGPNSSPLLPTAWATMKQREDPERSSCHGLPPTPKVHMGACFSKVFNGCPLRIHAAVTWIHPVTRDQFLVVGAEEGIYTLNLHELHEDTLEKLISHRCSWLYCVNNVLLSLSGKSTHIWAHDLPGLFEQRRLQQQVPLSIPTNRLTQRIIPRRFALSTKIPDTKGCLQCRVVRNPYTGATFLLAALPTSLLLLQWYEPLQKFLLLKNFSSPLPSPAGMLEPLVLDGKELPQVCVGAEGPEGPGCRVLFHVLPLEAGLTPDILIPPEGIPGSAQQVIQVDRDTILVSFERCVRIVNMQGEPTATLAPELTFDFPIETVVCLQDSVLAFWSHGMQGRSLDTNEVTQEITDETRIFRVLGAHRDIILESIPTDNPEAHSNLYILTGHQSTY
Outline: as §1

266 human kinases (Homo sapiens, UniProt P06241), sequence (P06241 whole entry): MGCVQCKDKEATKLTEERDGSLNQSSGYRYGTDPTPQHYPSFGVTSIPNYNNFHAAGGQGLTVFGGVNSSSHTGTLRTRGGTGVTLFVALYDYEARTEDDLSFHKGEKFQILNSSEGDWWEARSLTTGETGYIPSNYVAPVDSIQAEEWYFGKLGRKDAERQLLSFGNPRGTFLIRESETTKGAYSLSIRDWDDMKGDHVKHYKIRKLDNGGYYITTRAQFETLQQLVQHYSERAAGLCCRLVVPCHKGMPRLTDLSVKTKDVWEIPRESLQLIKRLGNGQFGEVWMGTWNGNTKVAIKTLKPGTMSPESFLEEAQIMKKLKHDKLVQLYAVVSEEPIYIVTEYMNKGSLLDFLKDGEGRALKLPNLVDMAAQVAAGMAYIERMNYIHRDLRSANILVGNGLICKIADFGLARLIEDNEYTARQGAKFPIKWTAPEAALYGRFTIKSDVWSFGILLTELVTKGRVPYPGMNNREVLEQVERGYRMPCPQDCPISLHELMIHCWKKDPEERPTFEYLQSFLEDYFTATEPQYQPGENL

## HRRIKAWLKKIKALARQLGVAA (mammal) [MMI-0500]
[1]
  % activity: 7%
[2]
  % activity: 83%
[3]
  % activity: 45%
[4]
  % activity: 20%
[5]
  % activity: 30%

## YARAAARQARAKALNRQLGVA (mammal) [MMI-0200]
[1]
  % activity: 97%
[2]
  % activity: 75%
[3]
  % activity: 110%
[4]
  % activity: 93%
[5]
  % activity: 99%
